What was measured:
[1] = molecular target: T1, gp100 peptide on HLA-A*02:01 (human); assay: multimer staining
T1 peptide: ITDQVPFSV

[2] = molecular target: none (gp100-negative cells) peptide on HLA-A2 (human); assay: RNA-electroporated human PBL with HLA-A2+ gp100-negative melanoma A375; 31 pg/ml for transduced PBL in Table 7; text: did not recognize melanoma cell lines not expressing gp100; full-length, on cells; conditions: chains Valpha:Vbeta

B1: Sp(0.01)A TCR (TCR, V domains shown)
Valpha: QQKVQQSPESLIVPEGAMTSLNCTFSDSASQYFAWYRQHSGKAPKALMSIFSNGEKEEGRFTIHLNKASLHFSLHIRDSQPSDSALYLCAANNYAQGLTFGLGTRVSVFP
Vbeta: EAAVTQSPRSKVAVTGGKVTLSCHQTNNHDYMYWYRQDTGHGLRLIHYSYVADSTEKGDIPDGYKASRPSQENFSLILELASLSQTAVYFCASSPGGGGEQYFGPGTRLTVL
binding result [1]: no recognition
IFN-gamma release [2]: 45 pg/mL

Source: patent US20140219978A1 (published 2014)
